Values quoted from earlier work in paper PMC8476072.

Molecular target: CheZ (Escherichia coli) (UniProt P0A9H9)
UniProt P0A9H9, sequence (P0A9H9 whole entry): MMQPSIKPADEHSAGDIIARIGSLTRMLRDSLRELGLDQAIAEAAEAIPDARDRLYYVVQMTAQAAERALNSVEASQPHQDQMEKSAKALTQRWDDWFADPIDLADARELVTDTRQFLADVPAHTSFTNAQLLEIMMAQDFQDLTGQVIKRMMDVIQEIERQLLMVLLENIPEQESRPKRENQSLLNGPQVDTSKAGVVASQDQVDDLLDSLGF

For CheY (from UniProt P0AE67), the Kd is given as 8 µM.
